This is an account of results in patent US20140315822A1 (INSTITUT PASTEUR, published 2014).

Where two headings read alike, the source gives them in different places.

Assay [1] addresses VIR13 (Neurovita 1) (rabies virus). The assay can be described thus: method not restated in the table; ITC per paragraph 50.
Assay [2] has the same target.

B1: PDZ domain of the human PTPN4 protein (other)
chain: SSPEKPTPNGGIPHDNLVLIRMKPDENGRFGFNVKGGYDQKMPVIVSRVAPGTPADLCVPRLNEGDQVVLINGRDIAEHTHDQVVLFIKASCERHSGELMLLVRPN
notes: domain: PDZ domain
In the assay with VIR13 (Neurovita 1) [1], B1 displayed a Kd of 560 µM.

B2: PDZ domain of the human MAST2 protein (other)
chain: MRPPIIIHRAGKKYGFTLRAIRVYMGDSDVYTVHHMVWHVEDGGPASEAGLRQGDLITHVNGEPVHGLVHTEVVELILKSGNKVAISTTPLEN
Consider B2, for which, in the assay with VIR13 (Neurovita 1) [2], the dissociation constant (Kd) came out at 1.26 µM.

Usually Kd stands for the equilibrium constant for the complex coming apart. High values mean lower affinity, low ones higher affinity.
